Values quoted from earlier work, collected in article PMC5606850.

Molecular target: HTLV-1 nucleocapsid NTD (Human T-cell leukemia virus type 1) (UniProt P03345)
Sequence (P03345 345-395): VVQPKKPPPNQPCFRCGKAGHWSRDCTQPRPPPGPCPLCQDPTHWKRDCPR

HTLV-1 nucleocapsid CTD, sequence (P03345 396-429): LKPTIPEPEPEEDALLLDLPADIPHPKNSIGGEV

## HTLV-1 nucleocapsid CTD (from UniProt P03345)
  Kd: 0.2 µM
